Assay results taken from US20230137562A1, “TAU AGGREGATION INHIBITORS” (priority 2017, published 2023).
Where “and” joins values, the source holds several entries; their conditions need not be identical. Identical values can stand only once. Square brackets hold non-standard residues; d marks the D form. Ends that are not written are not given here. NMeI = CC[C@H](C)[C@H](NC)C(=O)O; hArg = N=C(N)NCCCC[C@H](N)C(=O)O; Orn = NCCC[C@H](N)C(=O)O

T1: Ac-VQIINK-NH2
T1 peptide: Ac-VQIINK-NH2


Columns and labels:
Ac-VQIINK-NH2 = biological target: T1, Ac-VQIINK-NH2; experiment: cell-based or functional assay
His-Tau40P301L Tau = His-Tau40P301L Tau (UniProt P10636-8 1-441); experiment: cell-based or functional assay
His-Tau40P301L Tau, sequence (P10636 other isoform, or with tags, fused parts or gaps limits assumed): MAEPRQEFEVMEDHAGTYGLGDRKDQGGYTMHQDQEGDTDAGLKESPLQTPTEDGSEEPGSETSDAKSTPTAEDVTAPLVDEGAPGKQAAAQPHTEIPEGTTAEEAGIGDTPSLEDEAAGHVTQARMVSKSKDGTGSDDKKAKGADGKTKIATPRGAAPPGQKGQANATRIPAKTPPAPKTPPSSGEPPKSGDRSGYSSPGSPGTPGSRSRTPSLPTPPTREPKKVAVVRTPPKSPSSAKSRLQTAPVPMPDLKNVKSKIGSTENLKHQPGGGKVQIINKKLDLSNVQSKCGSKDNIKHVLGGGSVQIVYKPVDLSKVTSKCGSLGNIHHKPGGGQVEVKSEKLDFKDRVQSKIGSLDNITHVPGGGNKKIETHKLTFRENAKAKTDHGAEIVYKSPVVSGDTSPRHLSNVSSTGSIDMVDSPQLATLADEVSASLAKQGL

Binder	IC50 (µM), VQIINK Inhibition (ThT) (Ac-VQIINK-NH2)	IC50 (µM), Tau40 assay (ThT) (His-Tau40P301L Tau)
WRIHIRW	1.47 µM	3.09 µM
RIWLWYR	4.27 µM and 5.47 µM	2.73 µM
RIWIRYW	4.87 µM	2.42 µM
W[Orn]I[Orn]I[Orn]W [WOIOIOW]		1.17 µM
WRVWGWVRW		1.81 µM and 1.85 µM
WRIHIRYW	3.17 µM	3.76 µM
WWIRIRYWH		2.16 µM and 2.3 µM
WIRLYWRW	1.86 µM	2.42 µM and 2.38 µM
HRIRIRW	9.07 µM	3.28 µM
WR[NMeI]RIRW [WR(NMe)IRIRW]		1.48 µM
WRIRLYWR	2.12 µM	3.1 µM
WRIWIRYW	1.89 µM	
RIRIWLW	1.93 µM	
RIWLRVW	4.09 µM	
YRIRLRY		1.08 µM
IRIWVW	2.43 µM	
RIRLYIW		2.12 µM
FRIKLRW	2.38 µM	2.6 µM
IRWRIRW	9.77 µM	2.82 µM

Binder	IC50 (µM), VQIINK Inhibition (ThT) (Ac-VQIINK-NH2)	IC50 (µM), Tau40 assay (ThT) (His-Tau40P301L Tau)
IRLIVW	3.01 µM	
WRIRIRW	2.96 µM	0.9 µM and 0.84 µM
RIRIWRW		2.39 µM
WIRIRYW	6.02 µM	2.6 µM
IWIRYWRW	2.15 µM	2.73 µM
WRIWIREW	3.96 µM	2.76 µM
RIWIRYWW		2.28 µM
RRIRIRW	4.29 µM	2.88 µM
WIRYWWRI	2.8 µM	3.69 µM
RWWIRIRYW	2.76 µM	2.54 µM
RIALYWW	2.39 µM	3.54 µM
FRIWIRYW		2.12 µM
IRLWLW	1.27 µM	
WRIRLRGW		1.74 µM and 1.91 µM
RIWIYWFR		0.55 µM
W[hArg]I[hArg]L[hArg]W [W(hR)I(hR)L(hR)W]	2.52 µM	3.39 µM
IWIRYWWR	2.01 µM	2.44 µM
LRIWIRYW		1.71 µM
HWKIIWYR		2.39 µM

Binder	IC50 (µM), VQIINK Inhibition (ThT) (Ac-VQIINK-NH2)	IC50 (µM), Tau40 assay (ThT) (His-Tau40P301L Tau)
WRIRIRR	34.1 µM	3.15 µM
WRARIRW	5.77 µM	3.7 µM
WRIWIRYR	3.33 µM	2.64 µM
RIRIWIW	2.38 µM	0.84 µM and 1.38 µM
LRIWIRYL	1.74 µM	2.66 µM
LWWIRIRYW		1.59 µM and 1.8 µM
IRIRWRW	4.86 µM	2.78 µM
RIRLYWW		1.74 µM
WRIWLYWR		1.69 µM
FRIRIHHW	1.08 µM	3.2 µM
WRILIRYW		14.6 µM
WRIWLWYR	2.7 µM	
WYRLRIRW	2.36 µM	0.86 µM and 0.97 µM
WKVQVRLW	1.35 µM	2.4 µM and 2.31 µM
WRIWIRW	2.73 µM	2.98 µM and 2.1 µM and 2.11 µM
WIRYWIRW	1.78 µM	2.42 µM
WRIRIWYW	2.43 µM	0.85 µM
WRLRLRW	2.22 µM	0.23 µM
